Experimental data from patent US20140242080A1 (Hoffmann-La Roche, published 2014).

Columns and labels:
[1] = biological target: T1, human CD3 expressed on Jurkat cells (human, UniProt P07766 23-207); assay: flow cytometry on Jurkat cells, 50 nM
T1 construct: CD3 complex on Jurkat T cells; also called CD3 on Jurkat cells; huCD3
Procedure: (§1) Binding of the different bispecific constructs to CD3 on Jurkat cells (ATCC #TIB-152), and the respective tumor antigen on target cells, was determined by FACS. Briefly, cells were harvested, counted and checked for viability. 0.15-0.2 million cells per well (in PBS containing 0.1% BSA; 90 μl) were plated in a round-bottom 96-well plate and incubated with the indicated concentration of the bispecific constructs and corresponding IgG controls (10 μl) for 30 min at 4° C. […] After the incubation, cells were centrifuged (5 min, 350×g), washed with 150 μl PBS containing 0.1% BSA, resuspended and incubated for further 30 min at 4° C. with 12 μl/well of a FITC- or PE-conjugated secondary antibody. Bound constructs were detected using a FACSCantoII (Software FACS Diva). The “(scFv)₂” molecule was detected using a FITC-conjugated anti-His antibody (Lucerna, #RHIS-45F-Z). For all other molecules, a FITC- or PE-conjugated AffiniPure F(ab′)2 Fragment goat anti-human IgG Fcγ Fragment Specific (Jackson Immuno Research Lab #109-096-098/working solution 1:20, or #109-116-170/working solution 1:80, respectively) was used. Cells were washed by addition of 120 μl/well PBS containing 0.1% BSA and centrifugation at 350×g for 5 min. A second washing step was performed with 150 μl/well PBS containing 0.1% BSA. […] EC50 values were calculated using the GraphPad Prism software.
(§2) In a first experiment, different bispecific constructs targeting human MCSP and human CD3 were analyzed by flow cytometry for binding to human CD3 expressed on Jurkat, human T cell leukaemia cells, or to human MCSP on Colo-38 human melanoma cells.

[2] = biological target: T2, human MCSP expressed on tumor cells (Colo-38, WM266-4, A375, MV-3, HCT-116) (human, UniProt Q6UVK1 30-2322); assay: flow cytometry on Colo-38 cells, 50 nM
T2 construct: whole, on cells; also called huMCSP; MCSP on cells
Procedure: as §1, §2

[3] = biological target: T3, HuFcγRIIIa-V158-K6H6 (human, UniProt P08637 17-208, limits assumed); assay: SPR Biacore T100, 25 C; receptor captured via anti-Penta His, construct as analyte; kinetic, one concentration (1000 nM)
T3 construct: His-tagged recombinant receptor captured by anti-Penta His antibody; also called human FcγRIIIa-V158; human FcγRIIIa
Procedure: For analyzing interaction of different Fc-variants with human FcγRIIIa-V158 and murine FcγRIV direct coupling of around 6,500 resonance units (RU) of the anti-Penta His antibody (Qiagen) is performed on a CM5 chip at pH 5.0 using the standard amine coupling kit (Biacore, Freiburg/Germany). HuFcγRIIIa-V158-K6H6 and muFcγRIV-aviHis-biotin are captured for 60 s at 4 and 10 nM respectively.
Constructs with different Fc-mutations are passed through the flow cells for 120 s at a concentration of 1000 nM with a flow rate of 30 μl/min. The dissociation is monitored for 220 s. Bulk refractive index differences are corrected for by subtracting the response obtained in a reference flow cell. […] Affinity for human FcγRIIIa-V158 and murine FcγRIV was determined for wild-type Fc using a concentration range from 500-4000 nM.

[4] = biological target: T4, human CEA expressed on tumor cells (LS-174T, A549-huCEA, MKN-45, MC38-huCEA, HPAFII, BxPC-3, ASPC-1) (human, UniProt P06731 35-685); assay: cell-based or functional assay
T4 sequence (looked up): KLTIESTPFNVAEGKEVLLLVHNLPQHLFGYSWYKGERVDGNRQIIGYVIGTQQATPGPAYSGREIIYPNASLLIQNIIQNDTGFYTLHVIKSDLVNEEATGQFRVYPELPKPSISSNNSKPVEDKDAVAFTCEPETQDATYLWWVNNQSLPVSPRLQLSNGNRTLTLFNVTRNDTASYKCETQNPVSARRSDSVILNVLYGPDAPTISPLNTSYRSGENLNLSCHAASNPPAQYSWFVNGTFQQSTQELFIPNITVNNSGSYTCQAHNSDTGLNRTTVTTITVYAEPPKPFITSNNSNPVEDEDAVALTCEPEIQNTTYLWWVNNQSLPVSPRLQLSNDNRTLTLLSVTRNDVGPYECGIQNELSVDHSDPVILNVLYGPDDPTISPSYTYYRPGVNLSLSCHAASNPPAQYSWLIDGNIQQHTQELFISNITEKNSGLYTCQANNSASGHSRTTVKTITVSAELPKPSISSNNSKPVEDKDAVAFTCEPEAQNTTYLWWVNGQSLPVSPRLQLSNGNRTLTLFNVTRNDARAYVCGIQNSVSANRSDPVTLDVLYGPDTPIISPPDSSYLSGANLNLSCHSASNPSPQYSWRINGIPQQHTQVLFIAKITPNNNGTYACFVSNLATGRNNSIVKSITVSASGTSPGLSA

[5] = biological target: T4, human CEA expressed on tumor cells …; assay: flow cytometry on LS-174T cells
Procedure: Binding of the different bispecific constructs to CD3 on Jurkat cells (ATCC #TIB-152), and the respective tumor antigen on target cells, was determined by FACS. Briefly, cells were harvested, counted and checked for viability. 0.15-0.2 million cells per well (in PBS containing 0.1% BSA; 90 μl) were plated in a round-bottom 96-well plate and incubated with the indicated concentration of the bispecific constructs and corresponding IgG controls (10 μl) for 30 min at 4° C. […] After the incubation, cells were centrifuged (5 min, 350×g), washed with 150 μl PBS containing 0.1% BSA, resuspended and incubated for further 30 min at 4° C. with 12 μl/well of a FITC- or PE-conjugated secondary antibody. Bound constructs were detected using a FACSCantoII (Software FACS Diva). The “(scFv)₂” molecule was detected using a FITC-conjugated anti-His antibody (Lucerna, #RHIS-45F-Z). […] EC50 values were calculated using the GraphPad Prism software.
As a control, the equivalent maximum concentration of the corresponding IgGs and the background staining due to the labeled 2ndary antibody (goat anti-human FITC-conjugated AffiniPure F(ab′)2 Fragment, FcγFragment-specific, Jackson Immuno Research Lab #109-096-098) were assessed as well.

[6] = biological target: T1, human CD3 expressed on Jurkat cells; assay: flow cytometry on Jurkat cells

T1 sequence (P07766 23-207 limits assumed): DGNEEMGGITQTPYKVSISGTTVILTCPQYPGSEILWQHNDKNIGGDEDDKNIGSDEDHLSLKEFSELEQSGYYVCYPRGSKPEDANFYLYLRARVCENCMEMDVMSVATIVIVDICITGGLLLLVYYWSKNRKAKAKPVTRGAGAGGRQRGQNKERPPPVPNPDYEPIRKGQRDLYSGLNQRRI
T2 sequence (Q6UVK1 30-2322): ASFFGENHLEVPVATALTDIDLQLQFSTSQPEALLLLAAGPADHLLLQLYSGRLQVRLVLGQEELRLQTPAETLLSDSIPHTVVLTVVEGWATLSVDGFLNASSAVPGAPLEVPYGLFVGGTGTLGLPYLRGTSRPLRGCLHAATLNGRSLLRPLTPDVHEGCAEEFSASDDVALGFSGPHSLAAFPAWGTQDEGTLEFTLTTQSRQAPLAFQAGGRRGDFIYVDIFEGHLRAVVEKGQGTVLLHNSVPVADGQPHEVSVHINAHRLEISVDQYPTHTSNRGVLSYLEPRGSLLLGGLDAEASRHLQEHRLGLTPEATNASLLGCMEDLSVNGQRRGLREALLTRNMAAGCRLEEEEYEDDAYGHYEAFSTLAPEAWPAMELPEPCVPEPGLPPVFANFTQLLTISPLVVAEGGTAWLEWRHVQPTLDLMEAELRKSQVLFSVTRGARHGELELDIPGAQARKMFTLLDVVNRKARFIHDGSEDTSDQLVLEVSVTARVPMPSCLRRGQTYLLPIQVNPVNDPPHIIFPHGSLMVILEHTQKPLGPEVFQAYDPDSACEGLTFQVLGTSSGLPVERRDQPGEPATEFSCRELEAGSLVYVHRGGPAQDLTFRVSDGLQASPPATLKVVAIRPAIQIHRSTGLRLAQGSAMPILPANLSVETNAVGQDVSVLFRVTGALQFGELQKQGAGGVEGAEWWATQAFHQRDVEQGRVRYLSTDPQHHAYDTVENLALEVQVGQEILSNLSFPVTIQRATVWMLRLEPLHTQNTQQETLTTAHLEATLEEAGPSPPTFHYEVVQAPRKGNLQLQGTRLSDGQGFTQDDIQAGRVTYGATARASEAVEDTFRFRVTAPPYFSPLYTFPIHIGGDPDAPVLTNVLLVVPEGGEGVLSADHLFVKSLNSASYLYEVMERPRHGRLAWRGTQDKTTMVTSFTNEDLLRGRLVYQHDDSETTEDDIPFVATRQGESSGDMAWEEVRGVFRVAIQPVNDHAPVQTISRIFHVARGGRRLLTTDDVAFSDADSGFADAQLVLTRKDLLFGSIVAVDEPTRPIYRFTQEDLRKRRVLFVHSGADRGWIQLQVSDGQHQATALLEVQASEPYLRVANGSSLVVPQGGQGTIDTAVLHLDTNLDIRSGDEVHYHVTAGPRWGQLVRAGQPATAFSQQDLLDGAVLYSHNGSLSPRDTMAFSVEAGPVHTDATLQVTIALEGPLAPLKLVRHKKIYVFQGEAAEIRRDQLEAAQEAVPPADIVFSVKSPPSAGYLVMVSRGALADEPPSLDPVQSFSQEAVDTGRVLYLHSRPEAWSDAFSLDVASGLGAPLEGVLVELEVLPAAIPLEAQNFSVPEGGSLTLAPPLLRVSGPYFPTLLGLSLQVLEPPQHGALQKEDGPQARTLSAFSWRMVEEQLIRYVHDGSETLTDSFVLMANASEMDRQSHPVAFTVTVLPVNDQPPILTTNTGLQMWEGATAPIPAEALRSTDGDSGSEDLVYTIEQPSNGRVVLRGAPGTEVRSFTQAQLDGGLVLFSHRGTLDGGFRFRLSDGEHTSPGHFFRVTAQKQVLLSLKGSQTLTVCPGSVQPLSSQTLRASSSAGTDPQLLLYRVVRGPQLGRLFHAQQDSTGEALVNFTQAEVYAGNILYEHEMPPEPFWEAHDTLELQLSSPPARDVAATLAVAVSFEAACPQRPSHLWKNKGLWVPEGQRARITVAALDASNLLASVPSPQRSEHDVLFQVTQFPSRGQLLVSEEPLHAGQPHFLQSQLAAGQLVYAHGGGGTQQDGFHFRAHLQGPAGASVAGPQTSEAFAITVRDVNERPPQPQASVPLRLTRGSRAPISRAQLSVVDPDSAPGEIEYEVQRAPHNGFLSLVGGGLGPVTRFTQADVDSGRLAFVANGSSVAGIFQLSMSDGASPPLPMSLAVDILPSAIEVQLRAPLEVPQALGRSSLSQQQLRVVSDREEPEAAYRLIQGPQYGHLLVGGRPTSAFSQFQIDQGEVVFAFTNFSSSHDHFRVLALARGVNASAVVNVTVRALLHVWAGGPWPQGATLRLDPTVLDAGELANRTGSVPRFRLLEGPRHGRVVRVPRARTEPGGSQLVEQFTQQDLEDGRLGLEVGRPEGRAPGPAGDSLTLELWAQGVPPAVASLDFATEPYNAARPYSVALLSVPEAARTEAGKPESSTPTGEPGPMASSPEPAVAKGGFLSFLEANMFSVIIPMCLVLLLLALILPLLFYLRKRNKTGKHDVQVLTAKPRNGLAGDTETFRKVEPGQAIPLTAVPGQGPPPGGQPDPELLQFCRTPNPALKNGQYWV
T3 sequence (P08637 17-208 F176V limits assumed): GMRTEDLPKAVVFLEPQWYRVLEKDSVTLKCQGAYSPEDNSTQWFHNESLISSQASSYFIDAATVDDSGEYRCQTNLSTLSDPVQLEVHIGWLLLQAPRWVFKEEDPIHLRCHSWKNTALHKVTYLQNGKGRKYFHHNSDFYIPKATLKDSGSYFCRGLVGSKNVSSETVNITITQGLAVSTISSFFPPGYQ

B1: “2+1 IgG scFab, LALA” (anti-MCSP/anti-huCD3) (bispecific antibody)
chain 1: DIVLTQSPSSLSASLGDRVTISCSASQGIRNYLNWYQQRPDGTVKLLIYYTSSLHSGVPSRFSGSGSGTDYSLTISNLEPEDIATYYCQQYSKLPWTFGGGTKLEIKRTVAAPSVFIFPPSDEQLKSGTASVVCLLNNFYPREAKVQWKVDNALQSGNSQESVTEQDSKDSTYSLSSTLTLSKADYEKHKVYACEVTHQGLSSPVTKSFNRGEC
chain 2: not shown
chain 3: EVQLQESGPGLVKPSQSLSLTCSVTGYSITSGYYWNWIRQFPGNKLEWMGYITYDGSNNYNPSLKNRISITRDTSKNQFFLKLNSVTTEDTATYYCADFDYWGQGTTLTVSSASTKGPSVFPLAPSSKSTSGGTAALGCLVKDYFPEPVTVSWNSGALTSGVHTFPAVLQSSGLYSLSSVVTVPSSSLGTQTYICNVNHKPSNTKVDKKVEPKSCDKTHTCPPCPAPEAAGGPSVFLFPPKPKDTLMISRTPEVTCVVVDVSHEDPEVKFNWYVDGVEVHNAKTKPREEQYNSTYRVVSVLTVLHQDWLNGKEYKCKVSNKALPAPIEKTISKAKGQPREPQVCTLPPSRDELTKNQVSLSCAVKGFYPSDIAVEWESNGQPENNYKTTPPVLDSDGSFFLVSKLTVDKSRWQQGNVFSCSVMHEALHNHYTQKSLSLSPGK
notes: Fc with L234A L235A; also called Fc-LALA; copies: 2 + 1 + 1
binding result [1]: binds
binding result [2]: binds
Kd [3]: 2130 nM

B2: “1+1 IgG scFab, one armed inverted” (anti-MCSP/anti-huCD3) (bispecific antibody)
chain 1: DIVLTQSPSSLSASLGDRVTISCSASQGIRNYLNWYQQRPDGTVKLLIYYTSSLHSGVPSRFSGSGSGTDYSLTISNLEPEDIATYYCQQYSKLPWTFGGGTKLEIKRTVAAPSVFIFPPSDEQLKSGTASVVCLLNNFYPREAKVQWKVDNALQSGNSQESVTEQDSKDSTYSLSSTLTLSKADYEKHKVYACEVTHQGLSSPVTKSFNRGECSGGGSGGGSEGGGSEGGGSEGGGSEGGGSGGGSGEVQLQESGPGLVKPSQSLSLTCSVTGYSITSGYYWNWIRQFPGNKLEWMGYITYDGSNNYNPSLKNRISITRDTSKNQFFLKLNSVTTEDTATYYCADFDYWGQGTTLTVSSASTKGPSVFPLAPSSKSTSGGTAALGCLVKDYFPEPVTVSWNSGALTSGVHTFPAVLQSSGLYSLSSVVTVPSSSLGTQTYICNVNHKPSNTKVDKKVEPKSCDGGGGSGGGGSGAQDKTHTCPPCPAPEAAGGPSVFLFPPKPKDTLMISRTPEVTCVVVDVSHEDPEVKFNWYVDGVEVHNAKTKPREEQYNSTYRVVSVLTVLHQDWLNGKEYKCKVSNKALPAPIEKTISKAKGQPREPQVCTLPPSRDELTKNQVSLSCAVKGFYPSDIAVEWESNGQPENNYKTTPPVLDSDGSFFLVSKLTVDKSRWQQGNVFSCSVMHEALHNHYTQKSLSLSPGK
chain 2: not shown
chain 3: not shown
binding result [1]: binds
binding result [2]: binds

B3: 2 + 1 IgG Crossfab, inverted; CL/CH1 exchange (CH1A1A/V9) (anti-CEA/anti-huCD3) (bispecific antibody)
chain 1: QVQLVQSGAEVKKPGASVKVSCKASGYTFTEFGMNWVRQAPGQGLEWMGWINTKTGEATYVEEFKGRVTFTTDTSTSTAYMELRSLRSDDTAVYYCARWDFAYYVEAMDYWGQGTTVTVSSASTKGPSVFPLAPSSKSTSGGTAALGCLVKDYFPEPVTVSWNSGALTSGVHTFPAVLQSSGLYSLSSVVTVPSSSLGTQTYICNVNHKPSNTKVDKKVEPKSCDKTHTCPPCPAPEAAGGPSVFLFPPKPKDTLMISRTPEVTCVVVDVSHEDPEVKFNWYVDGVEVHNAKTKPREEQYNSTYRVVSVLTVLHQDWLNGKEYKCKVSNKALGAPIEKTISKAKGQPREPQVCTLPPSRDELTKNQVSLSCAVKGFYPSDIAVEWESNGQPENNYKTTPPVLDSDGSFFLVSKLTVDKSRWQQGNVFSCSVMHEALHNHYTQKSLSLSPGK
chain 2: DIQMTQSPSSLSASVGDRVTITCKASAAVGTYVAWYQQKPGKAPKLLIYSASYRKRGVPSRFSGSGSGTDFTLTISSLQPEDFATYYCHQYYTYPLFTFGQGTKLEIKRTVAAPSVFIFPPSDEQLKSGTASVVCLLNNFYPREAKVQWKVDNALQSGNSQESVTEQDSKDSTYSLSSTLTLSKADYEKHKVYACEVTHQGLSSPVTKSFNRGEC
chain 3: DIQMTQSPSSLSASVGDRVTITCRASQDIRNYLNWYQQKPGKAPKLLIYYTSRLESGVPSRFSGSGSGTDYTLTISSLQPEDFATYYCQQGNTLPWTFGQGTKVEIKSSASTKGPSVFPLAPSSKSTSGGTAALGCLVKDYFPEPVTVSWNSGALTSGVHTFPAVLQSSGLYSLSSVVTVPSSSLGTQTYICNVNHKPSNTKVDKKVEPKSC
chain 4: not shown
notes: also called CL/CH1-exchange construct
EC50 of T cell-mediated killing (LDH release), LS-174T cells, human PBMCs E:T 10:1, 28 h [4]: 0.673 nM
EC50 of T cell-mediated killing (LDH release), MKN-45 cells, human PBMCs E:T 10:1, 28 h [4]: 0.115 nM
EC50 [5]: 6.7 nM
EC50 [6]: 3.9 nM

B4: 2 + 1 IgG Crossfab, inverted; VL/VH exchange (CH1A1A/V9) (anti-CEA/anti-huCD3) (bispecific antibody)
chain 1: EVQLVESGGGLVQPGGSLRLSCAASGYSFTGYTMNWVRQAPGKGLEWVALINPYKGVSTYNQKFKDRFTISVDKSKNTAYLQMNSLRAEDTAVYYCARSGYYGDSDWYFDVWGQGTLVTVSSASVAAPSVFIFPPSDEQLKSGTASVVCLLNNFYPREAKVQWKVDNALQSGNSQESVTEQDSKDSTYSLSSTLTLSKADYEKHKVYACEVTHQGLSSPVTKSFNRGEC
chain 2: not shown
chain 3: B3 chain 1
chain 4: B3 chain 2
notes: also called VL/VH-exchange construct
EC50 of T cell-mediated killing (LDH release), LS-174T cells, human PBMCs E:T 10:1, 28 h [4]: 0.955 nM
EC50 of T cell-mediated killing (LDH release), MKN-45 cells, human PBMCs E:T 10:1, 28 h [4]: 0.243 nM
EC50 [5]: 9.3 nM
EC50 [6]: 4.6 nM
